Assay results as given in patent publication US20020022718A1, “Genes identified as required for proliferation of E. coli” (priority 1999, published 2002).

B1: EcXA186: antisense clone insert to E. coli yagG (nucleic acid, listed as Escherichia coli)
antisense: AGCAAAGCGAGCCGAACATGGTGGCGAGGCTGCCGTAAAGTAAAAACTGGGTCGCCAACTCCGGGTGATCCATCACGTATTTCACGAAGTAGAGCGTCGCCCCGCCGCGCACCACGTTGGAGCAGGTCGCCATCATCTTGAACGCGCACATGATGCGCCACTGGCTGTTGCCCAGC
B2: EcXA192: antisense clone insert to E. coli rbsC, rpsB (nucleic acid, listed as Escherichia coli)
antisense: AGCGCAACAGCGGAAACCAGGGTAGCCAGTTTTTTCATGTTCATATTCAAGATGTCCTGTAGTCGTTATTACTGCTTTTTGTTGTCTACCAGCACCGCCAGCAAAATCACCACCGCTTTGACGATCATCTGGTAATAGGAGGAAACACCTAACAAATTCAATCCATTATTAAGGAAGCCAAGAATTAATGCGCCGATCAACGTCCCAACAATGCGACCTTT
B3: EcXA179: antisense clone insert to E. coli valV (nucleic acid, listed as Escherichia coli)
antisense: CGAACCAACGACCCCCACCATGTCAAGGTGGTGCTCTAACCAACTGAGCTATGAACGCAACGTTGTAGGTGACAACGGGGACGAATATTAGCGGCAGAGTGGGAAGGTGGCAAGAGGCAAAACGTAATTTTCTGCGCTATTTCGACCGTTTGCAGAGCTTTTAAGCAAATTGGCTATATTTTGTTGATTTGCAAGGGTGATTTTTATTCAGGATCGCATTTACATCTGATACAACCC
B4: EcXA181: antisense clone insert to E. coli ppc (nucleic acid, listed as Escherichia coli)
antisense: CCCGGCTGGGTTTTTTCAAGTTTACGCAGGGGTGCGGGCGATCACTTCCGGGTTGCTGGCAGCTTCGCCTTTCGGCGAAATGCTGTGGT
B5: EcXA175: antisense clone insert to E. coli pykA (nucleic acid, listed as Escherichia coli)
antisense: TAGCTTCTTCCACATTGTCGAACTGAACGTCCAGACGGTGTTTAGAAACGTTGATGCTCGGGATTTTTTCCGCACCCAGGCAAACGCGCGCCATGGCTGCAACGGTTTCTGACGGATACTG
B6: EcXA176: antisense clone insert to E. coli yjdH (nucleic acid, listed as Escherichia coli)
antisense: TAGTTATTGGCTGTTTTGAGAATGTAATCTTCCAACTGCTTATAACTCTTCAGATGCAATAATCCGAGAATCACATGCAATTTATTCATAAATTCGTGGGATCGTTCACGAAGTGCGTCAGCATAGTTGACCAGACCGTCGAGTCGCTGCATCAGTTTACGTA
B7: EcXA183: antisense clone insert to E. coli ftsI (nucleic acid, listed as Escherichia coli)
antisense: GTTAGTAAAGCCGATGAGGTGAGCAGTCACTTCGCCGGACGGATAGTAACGGCGAGACTCTTCACGCAGATGAATCCCCGGCAGTTTCAGTTTTTTGATGTAGTCCGCCATGTCAGGGTTCACCTGACGCGCCAGATAAATAAAGCGCCCTTTCGGGTTGGCGTTAATGCGGGCTGAAAGCTGATCCAG
B8: EcXA182: antisense clone insert to E. coli tktA (nucleic acid, listed as Escherichia coli)
antisense: TCGCGAACACCGTAGTGGATGTAGTTACCCGCAGCATCTTCGTTGATTGCTTTAGAACCAGACCACAGGGTCAGGTTAGACGGCGCCAGGTCAGCAGAACCGCCGAGGAATTCCGGCAACAGCGGACCGAACGCTTCGAT
B9: EcXA180: antisense clone insert to E. coli yjcF (nucleic acid, listed as Escherichia coli)
antisense: TGTGACAGAGTGGTTATCGTTAATCAGGCAAAGAGGGAAAAACATATTATTTAAACCATTATAGCGCATAAAATATCCTTATAATTAACAAGAAAGAAAAGGCATATTCTCTGCATTATCATTTTCTACGACTGTCAAAAATCGCTCATTTTTTAATGAGTTTATTTGTTTAATATTATGGGAAAAGGTGATGCATTTGGGAGAGGAAGAGTATTCCCCGGTCAGACGACCGGGGAAGGGG
B10: EcXA187: antisense clone insert to E. coli b2271 (nucleic acid, listed as Escherichia coli)
antisense: TNNCANNNNCNNNNNNNNNNNNNNNNCNCNNTNCCTAGANTNTCNANGTCTNCNCNCNCNTNNCCNNNCCCTTCNNNNCCNNNNANANGNNCNNCNCCCCCNNNCCCNNTTTTGTTTTGGAAANTCCGTTTCAGGAANAGCTTCTGAATCCCGANCGNTTGATAACTGNNGGCCAGAGTCATAATGCGCACCAATAATAATCAGCGGNCCATCGGCAGGACCATAATCAGCAACAATGNNNNGGTAGGGGCCACCCGTAATGGGGACCGTCCTGCGAGGTAACTCTGGCACCGCTACTGACAAAGACCTCTTTTATATATTCTGCGGGACCTATTCAGATTATCAATATTGTCNGGCACTACGTGGATGCACAAGTTTGTGTAAGATAACGAACTGNTTTTTCTAATTGCTCAGGACTTTGCGTGTCGGGGCCGTTGACGGTAATGCATTGACCCAGGGTTGGTAAAAAATAATCATAGGGAGTAAAAACACAAATAATATAATAAAAGCCAAGATTATTTTTTTCATATGCAAAATTATTAATGGGGTTGCGTTTGGTGAATCATTATNTTGCTATGGGTTTCGATATTGNGATTTTAATTAAAGATTAAGCANGGGATTATACCAAAAGA
modifications: misc_feature (1)...(632): n = A,T,C or G
notes: antisense clone insert to E. coli b2271
B11: EcXA178: antisense clone insert to E. coli rpsT (nucleic acid, listed as Escherichia coli)
antisense: CTGGAGATTGAGTAGATATTCTTGTTCAGAATGTATCAGCCCGATGGTTCTACGATTCTTAAGCCACGAAGAGTTCAGATAGTACAACGGCATGTCTCTTTTGACTATCTGGCAACCCGGCAGTGTGTTCTCTCACGCATCACAAAAGCAGCAGGCATAAAAAAACCCGCTTGCGCGGCTTTTTCACAAAGCTTCAGCAAATTGGCGATTAAGCCAGTTTGTTGATCTGTGCAGTCAGGTTAGCCTTATGACGTGCAGCTTTGTTTTTGTGGATCAAACCTTTAGCAGCCTGACGGTCCACGATCGGTTGCATTTCGTT
B12: EcXA185: antisense clone insert to E. coli rpsK (nucleic acid, listed as Escherichia coli)
antisense: CCCTGACGATCAGTGATAGTCACGATGGTGTTGTTGAAAGAAGCATGGATATGAGCCACGCCGTCAG
B13: EcXA184: antisense clone insert to E. coli cysC (nucleic acid, listed as Escherichia coli)
antisense: GCAGTTCACCGGCACGCGCTTTCTTATATAAGCCTTTGGGATCGCGGGCTTCGCAAATCGCCAGCGGCGTATCGACAAACACTTCGATAAAGCGCCCTTCTCCTACGCGTTCGCGAACCATCTGGCGTTCGGCGCGGTGTGGCGAGATAAATGCGGTCAGCACCACCAGTCCGGCTTCAACCATCAAATTCGCCACTTCACCGACGCGACGGATATTCTCTTTACGATCGGCATCGCTAAAACCGAGATCGCTGCATAATCCGTGGCGAACATTGTCGCCATCCAGCAGATACGTACTGACGCCGAGTTTATGTAACGCCTCCTCCAGCGCCCCGGCGACCGTTGAT

Test system: Klebsiella pneumoniae
Assay: Growth inhibition by induced E. coli antisense RNA in Klebsiella pneumoniae
Format: cell-based
Design: key: +: a positive in Table V below means that at least 10 fold more cells were required to observe a colony on the induced plate than on the non-induced plate; −: If there was no effect of antisense RNA expression in a microorganism, the clone is minus in Table V below
Conditions: antisense RNA expression induced with IPTG, serial dilution plating
Outline: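 An E. coli antisense fragment (b3052 portion), or other E. coli-inhibitory antisense clones, was expressed in each species on IPTG induction (1 mM). Serial 10-fold dilutions were spotted on selective agar with or without IPTG overnight. The score is the log difference in maximal colony-forming dilution, induced vs uninduced (0 = no effect; positive = at least 10-fold).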

| Molecule | Sensitivity of K. pneumoniae to antisense nucleic acid (growth inhibition, induced vs. uninduced) |
| --- | --- |
| B1 | − |
| B2 | − |
| B3 | − |
| B4 | − |
| B5 | − |
| B6 | − |
| B7 | − |
| B8 | − |
| B9 | − |
| B10 | + (a positive in Table V below means that at least 10 fold more cells were required to observe a colony on the induced plate than on the non-induced plate) |
| B11 | − |
| B12 | − |
| B13 | − |
